From US20240301064A1 (published 2024)

Target: T1, human PD-1 (human, UniProt Q15116 25-167, limits assumed)
T1 construct: also called huPD-1
Experiment: ELISA on coated huPD-1
Experimental: Plates were coated with 2 μg/mL huPD-1 in 1×PBS at 4° C. overnight. Plates were blocked with 1×PBS with 1% BSA. Antibodies were tested in duplicate for binding with a 3-fold, dilution series from 300 nM to 0.4 nM. Signal is background subtracted for coated wells with 2° antibody only. […] PD-1 agonists comprising germline mutations bind to human PD-1.

T1 sequence (Q15116 25-167 limits assumed): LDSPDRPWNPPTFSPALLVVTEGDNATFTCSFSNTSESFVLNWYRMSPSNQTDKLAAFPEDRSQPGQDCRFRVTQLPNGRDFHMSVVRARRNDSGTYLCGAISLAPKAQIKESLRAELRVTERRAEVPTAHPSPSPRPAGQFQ

Binder | IC50 [nM]
PMAB234 (antibody, human IgG1, kappa, V domains shown) VH: QVQLVQSGAEVKKPGASVKVSCKASGYTFTTYYMHWVRQAPGQGLEWMGIIQPSGGSTSYAQKFQGRVTMTRDTSTSTVYMELSSLRSEDTAVYYCASGWVYWGQGTLVTVSS VL: not shown | 28.1
PMAB235 (antibody, human IgG1, kappa, V domains shown) VH: QVQLVQSGAEVKKPGASVKVSCKASGYTFTTYYMHWVRQAPGQGLEWMGIIQPSGGSTSYAQKFQGRVTMTRDTSTSTVYMELSSLRSEDTAVYYCASGWVYWGQGTLVTVSS VL: not shown | 23.2
PMAB237 (antibody, human IgG1, kappa, V domains shown) VH: QVQLVQSGAEVKKPGASVKVSCKASGYTFTTYYMHWVRQAPGQGLEWMGIIQPSGGSTSYAQKFQGRVTMTRDTSTSTVYMELSSLRSEDTAVYYCASGWVYWGQGTLVTVSS VL: not shown | 15.9
PMAB239 (antibody, human IgG1, kappa, V domains shown) VH: QVQLVQSGAEVKKPGASVKVSCKASGYSFTSYYMHWVRQAPGQGLEWMGIIQPSGGSTSYAQKFQGRVTMTRDTSTSTVYMELSSLRSEDTAVYYCASGWVYWGQGTLVTVSS VL: not shown | 44.7
PMAB238 (antibody, human IgG1, kappa, V domains shown) VH: QVQLVQSGAEVKKPGASVKVSCKASGYSFTSYYMHWVRQAPGQGLEWMGIIQPSGGSTSYAQKFQGRVTMTRDTSTSTVYMELSSLRSEDTAVYYCASGWVYWGQGTLVTVSS VL: not shown | 36.4

Continued, values first:

IC50 [nM] | Binder
258 | PMAB244 (antibody, human IgG1, kappa, V domains shown) VH: QVQLVQSGAEVKKPGASVKVSCKASGYSFTTYYMHWVRQAPGQGLEWMGIIQPSGGSTSYAQKFQGRVTMTRDTSTSTVYMELSSLRSEDTAVYYCASGWVYWGQGTLVTVSS VL: DIQMTQSPSSLSASVGDRVTITCQASRDIKNYLAWYQQKPGKAPKLLIYAASSLQSGVPSRFSGSGSGTDFTLTISSLQPEDFATYYCQQSYSTPPTFGPGTKVDIKR
46.4 | PMAB241 (antibody, human IgG1, kappa, V domains shown) VH: QVQLVQSGAEVKKPGASVKVSCKASGYSFTSYYMHWVRQAPGQGLEWMGIIQPSGGSTSYAQKFQGRVTMTRDTSTSTVYMELSSLRSEDTAVYYCASGWVYWGQGTLVTVSS VL: not shown
40.7 | PMAB243 (antibody, human IgG1, kappa, V domains shown) VH: QVQLVQSGAEVKKPGASVKVSCKASGYSFTSYYMHWVRQAPGQGLEWMGIIQPSGGSTSYAQKFQGRVTMTRDTSTSTVYMELSSLRSEDTAVYYCASGWVYWGQGTLVTVSS VL: not shown
30.6 | PMAB242 (antibody, human IgG1, kappa, V domains shown) VH: QVQLVQSGAEVKKPGASVKVSCKASGYSFTSYYMHWVRQAPGQGLEWMGIIQPSGGSTSYAQKFQGRVTMTRDTSTSTVYMELSSLRSEDTAVYYCASGWVYWGQGTLVTVSS VL: not shown
39 | PMAB240 (antibody, human IgG1, kappa, V domains shown) VH: QVQLVQSGAEVKKPGASVKVSCKASGYSFTSYYMHWVRQAPGQGLEWMGIIQPSGGSTSYAQKFQGRVTMTRDTSTSTVYMELSSLRSEDTAVYYCASGWVYWGQGTLVTVSS VL: not shown

Target: T2, Insulin
T2 construct: polyreactivity antigen
Experiment: ELISA on coated insulin, 100 nM antibody

T2 sequence (P01308 25-54, chain 1 of 2): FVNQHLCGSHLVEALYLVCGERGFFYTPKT
T2 sequence (P01308 90-110, chain 2 of 2): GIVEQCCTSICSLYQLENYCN

Binder | Insulin polyreactivity score
MIAB133 (antibody, human IgG1, kappa, also called MIAB133-001) heavy: EVQLLESGGGLVQPGGSLRLSCAASGFTFSSFWMHWVRQAPGKGLEWISYISGDSGYTNYADSVKGRFTISRDNSKNTLYLQMNSLRAEDTAVYYCARDRPYYYYMDVWGKGTTVTVSSASTKGPSVFPLAPSSKSTSGGTAALGCLVKDYFPEPVTVSWNSGALTSGVHTFPAVLQSSGLYSLSSVVTVPSSSLGTQTYICNVNHKPSNTKVDKKVEPKSCDKTHTCPPCPAPEAAGAPSVFLFPPKPKDTLMISRTPEVTCVVVDVSHEDPEVKFNWYVDGVEVHNAKTKPREEQYNSTYRVVSVLTVLHQDWLNGKEYKCKVSNKALPAPIEKTISKAKGQPREPQVYTLPPSREEMTKNQVSLTCLVKGFYPSDIAVEWESNGQPENNYKTTPPVLDSDGSFFLYSKLTVDKSRWQQGNVFSCSVMHEALHNHYTQKSLSLSPGGGGGSAPTSSSTKKTQLQLEHLLLDLQMILNGINNYKNPKLTRMLTFKFYMPKKATELKHLQCLEEELKPLEEALNLAPSKNFHLRPRDLISDINVIVLELKGSETTFMCEYADETATIVEFINRWITFSQSIISTLT light: DIQMTQSPSSLSASVGDRVTITCRASQSVSRSLAWYQQKPGKAPKLLIYAASSLQSGVPSRFSGSGSGTDFTLTISSLQPEDFATYYCQQYKSYPVTFGQGTKVEIKRTVAAPSVFIFPPSDEQLKSGTASVVCLLNNFYPREAKVQWKVDNALQSGNSQESVTEQDSKDSTYSLSSTLTLSKADYEKHKVYACEVTHQGLSSPVTKSFNRGEC | 13.2
MIAB137 (antibody, human IgG1, kappa) heavy: EVQLLESGGGLVQPGGSLRLSCAASGFTFSDFWMHWVRQAPGKGLEWVSAISGSGGSTYYADSVKGRFTISRDNSKNTLYLQMNSLRAEDTAVYYCARDRPYYYYMDVWGKGTTVTVSSASTKGPSVFPLAPSSKSTSGGTAALGCLVKDYFPEPVTVSWNSGALTSGVHTFPAVLQSSGLYSLSSVVTVPSSSLGTQTYICNVNHKPSNTKVDKKVEPKSCDKTHTCPPCPAPEAAGAPSVFLFPPKPKDTLMISRTPEVTCVVVDVSHEDPEVKFNWYVDGVEVHNAKTKPREEQYNSTYRVVSVLTVLHQDWLNGKEYKCKVSNKALPAPIEKTISKAKGQPREPQVYTLPPSREEMTKNQVSLTCLVKGFYPSDIAVEWESNGQPENNYKTTPPVLDSDGSFFLYSKLTVDKSRWQQGNVFSCSVMHEALHNHYTQKSLSLSPGGGGGSAPTSSSTKKTQLQLEHLLLDLQMILNGINNYKNPKLTRMLTFKFYMPKKATELKHLQCLEEELKPLEEALNLAPSKNFHLRPRDLISDINVIVLELKGSETTFMCEYADETATIVEFINRWITFSQSIISTLT light: DIQMTQSPSSLSASVGDRVTITCRASQSVSRSLAWYQQKPGKAPKLLIYAASSLQSGVPSRFSGSGSGTDFTLTISSLQPEDFATYYCQQYKSYPVTFGQGTKVEIKRTVAAPSVFIFPPSDEQLKSGTASVVCLLNNFYPREAKVQWKVDNALQSGNSQESVTEQDSKDSTYSLSSTLTLSKADYEKHKVYACEVTHQGLSSPVTKSFNRGEC | 67.3
MIAB146 (antibody, human IgG1, kappa, also called MIAB146-001) heavy: EVQLLESGGGLVQPGGSLRLSCAASGFTFSDFWMHWVRQAPGKGLEWISYISGDSGYTNYADSVKGRFTISRDNSKNTLYLQMNSLRAEDTAVYYCARDRPYYYYMDVWGKGTTVTVSSASTKGPSVFPLAPSSKSTSGGTAALGCLVKDYFPEPVTVSWNSGALTSGVHTFPAVLQSSGLYSLSSVVTVPSSSLGTQTYICNVNHKPSNTKVDKKVEPKSCDKTHTCPPCPAPEAAGAPSVFLFPPKPKDTLMISRTPEVTCVVVDVSHEDPEVKFNWYVDGVEVHNAKTKPREEQYNSTYRVVSVLTVLHQDWLNGKEYKCKVSNKALPAPIEKTISKAKGQPREPQVYTLPPSREEMTKNQVSLTCLVKGFYPSDIAVEWESNGQPENNYKTTPPVLDSDGSFFLYSKLTVDKSRWQQGNVFSCSVMHEALHNHYTQKSLSLSPGGGGGSAPTSSSTKKTQLQLEHLLLDLQMILNGINNYKNPKLTRMLTFKFYMPKKATELKHLQCLEEELKPLEEALNLAPSKNFHLRPRDLISDINVIVLELKGSETTFMCEYADETATIVEFINRWITFSQSIISTLT light: DIQMTQSPSSLSASVGDRVTITCRASQSVSSSLAWYQQKPGKAPKLLIYAASSLQSGVPSRFSGSGSGTDFTLTISSLQPEDFATYYCQQYKSYPVTFGQGTKVEIKRTVAAPSVFIFPPSDEQLKSGTASVVCLLNNFYPREAKVQWKVDNALQSGNSQESVTEQDSKDSTYSLSSTLTLSKADYEKHKVYACEVTHQGLSSPVTKSFNRGEC | 2.61
MIAB145 (antibody, human IgG1, kappa, also called MIAB145-001) heavy: EVQLLESGGGLVQPGGSLRLSCAASGFTFSDFWMHWVRQAPGKGLEWISYISGDSGYTNYADSVKGRFTISRDNSKNTLYLQMNSLRAEDTAVYYCARDRPYYYYMDVWGKGTTVTVSSASTKGPSVFPLAPSSKSTSGGTAALGCLVKDYFPEPVTVSWNSGALTSGVHTFPAVLQSSGLYSLSSVVTVPSSSLGTQTYICNVNHKPSNTKVDKKVEPKSCDKTHTCPPCPAPEAAGAPSVFLFPPKPKDTLMISRTPEVTCVVVDVSHEDPEVKFNWYVDGVEVHNAKTKPREEQYNSTYRVVSVLTVLHQDWLNGKEYKCKVSNKALPAPIEKTISKAKGQPREPQVYTLPPSREEMTKNQVSLTCLVKGFYPSDIAVEWESNGQPENNYKTTPPVLDSDGSFFLYSKLTVDKSRWQQGNVFSCSVMHEALHNHYTQKSLSLSPGGGGGSAPTSSSTKKTQLQLEHLLLDLQMILNGINNYKNPKLTRMLTFKFYMPKKATELKHLQCLEEELKPLEEALNLAPSKNFHLRPRDLISDINVIVLELKGSETTFMCEYADETATIVEFINRWITFSQSIISTLT light: not shown | 4.58
MIAB136 (antibody, human IgG1, kappa) heavy: EVQLLESGGGLVQPGGSLRLSCAASGFTFSSYAMSWVRQAPGKGLEWISYISGDSGYTNYADSVKGRFTISRDNSKNTLYLQMNSLRAEDTAVYYCARDRPYYYYMDVWGKGTTVTVSSASTKGPSVFPLAPSSKSTSGGTAALGCLVKDYFPEPVTVSWNSGALTSGVHTFPAVLQSSGLYSLSSVVTVPSSSLGTQTYICNVNHKPSNTKVDKKVEPKSCDKTHTCPPCPAPEAAGAPSVFLFPPKPKDTLMISRTPEVTCVVVDVSHEDPEVKFNWYVDGVEVHNAKTKPREEQYNSTYRVVSVLTVLHQDWLNGKEYKCKVSNKALPAPIEKTISKAKGQPREPQVYTLPPSREEMTKNQVSLTCLVKGFYPSDIAVEWESNGQPENNYKTTPPVLDSDGSFFLYSKLTVDKSRWQQGNVFSCSVMHEALHNHYTQKSLSLSPGGGGGSAPTSSSTKKTQLQLEHLLLDLQMILNGINNYKNPKLTRMLTFKFYMPKKATELKHLQCLEEELKPLEEALNLAPSKNFHLRPRDLISDINVIVLELKGSETTFMCEYADETATIVEFINRWITFSQSIISTLT light: DIQMTQSPSSLSASVGDRVTITCRASQSVSRSLAWYQQKPGKAPKLLIYAASSLQSGVPSRFSGSGSGTDFTLTISSLQPEDFATYYCQQYKSYPVTFGQGTKVEIKRTVAAPSVFIFPPSDEQLKSGTASVVCLLNNFYPREAKVQWKVDNALQSGNSQESVTEQDSKDSTYSLSSTLTLSKADYEKHKVYACEVTHQGLSSPVTKSFNRGEC | 75.4
